Results published in PMC10102533.

Tests used:
[1] = target: PGLYRP1-mIgG1-Fc (not stated | mouse); experiment: SDS-PAGE and Western blot with or without reducing agent
[2] = target: mouse IgG2a-Fc (Fc only) (mouse); experiment: as above

stoichiometry N [1] | stoichiometry N [2] | Substance
2 |  | PGLYRP1-mIgG1-Fc (Fc fusion)
 | 2 | mouse IgG2a-Fc (Fc only) (domain or fragment)
